The data set can be described thus: soluble on expression in E. coli; label from the status in PepcDB or PDB records.
Regarding “MDDLSPDSALPPAGSAQDNDAPRQLVVCIDGTSNRFGDQPTNVVRLYRSLSRDPRRVLAYYDQGVGTFGLKETLFEWQKFPSRIAGLAFGWGLKRNVEGAYRFLAEHYRPGDQIFLFGFSRGAYAVRVLAAMLRAVGLIDAHQPHLFDYAWTLLTTRMPPRDEDKRAGTRRRGPDFGLLGRFRKVFGRQVKVHFLGLFDTVTSVGWVYDPLTVPYSSNNEMVDVVRQALAIDECRCFFRQNLWFGEKDRKSDVLQVWFPGMHSDVGGGYAPKDSRLALVAFTWMLGEALEAGLHVDPARSRDQLRARSKQGPDPTAPILPVMTRPWRLAEWLPLLVWDRRSGNRAWRWSRGRPRSRPLEPVGQETRVKLHRSVQRRLDECPDYRPCNLPALERCDLIDDSPLLDGYRLEHHHHHH”, the “soluble on expression in E. coli” value is “not soluble”. In the case of “MDDRLYAPATERNRDAILAVLKDELRSPGTVLEIASGTGEHGAYFAPQLPDYFWQPSDPNEESRRSIAAWRSHVNAPNLGEAIAIDVTRSDWVESVPEFPQPVVAIAAINLIHISPWEATLGLFAGAKQLLSVDGLIYLYGAYKRGGQHTAPSNEAFDASLQARNPAWGARNLEDVTAVAEAEQFRLDRIVEMPSNNLSVCFRAIALEHHHHHH” it was “soluble”; in that of “MDDSMDYPDRDGDDLDQFQGTARSQVVQNQPHDEEVNLSESESFAGADEPPAAPRDASLIESHDMDEGPAAPARTLSPTGYEAGKHAPGGIANSDEAPPGAYNAQEYKHLNVGEDVRELFSYIGRYKPQTVELDTRIKPFIPDYIPAVGGIDEFIKVPRPDTKPDYLGLKVLDEPAAKQSDPTVLTLQLRQLSKEAPGAKADMVGRLEHTDENKAKKIQQWIASINDIHKAKPAATVNYSKRMPEIEALMQEWPPEVETFLKTMHMPSGDVELDIKTYARLVCTLLDIPVYDDPVESLHVLFTLYLEFKNNPIFRQHMEMENKLDGMSGGGGGMMGGGADVLGL”, “not soluble”. Turning to “MDDVRLHAIYQDITRDYLPPASLNHLMLLSKQTQHKLSFKSAPIPDLQPFFKNFTSKTPGSAKESPCSSTAKISSSISISSQCIFNVVILSFVFTSQNLNLPSHPALHNVSPESLNDRLMTQLECANSPRLACELWVGTDKEPILSPNSVSYRVMQPNEFES”, the “soluble on expression in E. coli” value is “soluble”.

On to “MDEAYKMRCDWYHHGELVSGGESESKFSQLNDEVVELYQAAEYLDEEFAGMVHLGEIVERDDKKEDEFLAKLADAETPLYPSCFNHSKLSAIMSLFTLKTKNGWSDKSHNDLLETLPEMLLEDNVLHSSLYEVKKFLKSFDMG”, for which the “soluble on expression in E. coli” value was “not soluble”. As to “MDEFGSLLGDSPRSSVNNWEKGVSIPKRDKLEKIAILGNMLPDQILYGRADEYLYDLIDSSFNVKFSDNILYEIFESVPPEKRSYDDLMWLAVAKYFIDNGTYGKVVGKFNYISMLGIPNLYTGSYQNEFIEQREDYKQQEVKYYVYADPEKNILHIMPFVPNEKNIELLYEFPELLEQQADHEVFTANFEQIGLTLKGSTIVYYGIDKQKLEAKTQAYKYDEAVDLYRIAQLPETLSMFDDEIQKQISFLKSK”, the “soluble on expression in E. coli” value is reported as “not soluble”. In the case of “MDEKIAPHLEELTRALGDLEKTGIRAEFYKLLAFRVSPEVAKETILRKFGGKRKILKVKDLSASLKNFEITGRILDMGEKALRPQEGVQDGPSKLYTGILADETGSVMFSSWKELPGSIGDVINIKNAYTRLWQNRIRLSIGEQSLVSGVSDSSLPGLSELSKTPLKKLIEIGSADFSVSTTACVLQLSHREVPVRGKQSKVISGVLADETARLPFTAWVELPGIDIGSIIRIEGAQIRMFRGMPSINFISSTRISPVPAEEAEKLAFTFESSSKDPSPIKIEEIASRDSMFDVVTAGNIVSVRPGSGIISRCPECSRVIQKSNCRVHGRVEGIRDMRIKAVLDDGTGAMSVMFPRELAEIIYGKTLEEAEQLMFSDISKDAVYEDLRRFLTGRYLAVRGNSSNGEYGASFVAENAWVPEDDLAVRVVELLRRLGPDEGEQSSEVSREGISFALEHHHHHH” it was “soluble”; in that of “MDELLNRLRQTWHSTIPVSEFMQIAPLSFTDGELSVSAPLAPNINLHHTMFAGSIYTIMTLTGWGMVWLQQQLLNVDGDIVLADAHIRYLAPVTSAPEVKVRWPDTNLSPLQRGRKAKVKLEVQLFCDGKLCAQFDGLYVSVPKMLEHHHHHH”, “soluble”. Consider “MDFDYVIAGGGSAGCTLAARLSEDPSKTVCLIEAGGAGSNLLIRAPAGIIALLPGRPKINNWAFETVPQQGLGGRKGYQPRGKALGGSSAINAMLYTRGHRGDYDEWADLGCDGWSWDEVLPYFRRAEGNQRGADALHGGDGPLRVAEQQEPRPLSRAFVEACGENQIRRNDDFNGVEQEGAGLYQVTQFWGERRNGERCSVAAAYLQPAMNRSNLTVITGAHATAVILDGKRATGVRYRAGKDEAVAKARREVIVCGGAFGSPQLLLLSGIGPAAELAMHGIPVIHELPGVGKNLQDHLDFIMGWTSKDADMMGIGLRGLPGLLRHMLRWRKDGGGMIATPYAEGGAFLKSDPAIERPDLQLHFCIAIVDDHGRKLHMGYGFSCHVCVLRPHSRGEVGLSTHDPMAPPRIDPRFLSDERDAELLLKGVRMMRGILEAPALARYRHKEIYTAGVSSDADLMSHIRARADTIYHPAGTCKMGVDELAVVDPQLRVHGLEALRVVDASVMPTLIGGNTNAPTIMIAEKAADMIKAAALEHHHHHH”, for which the “soluble on expression in E. coli” value is on record as “not soluble”. On to “MDFECQFVCELKELAPVPALLIRTQTTMSELGSLFEAGYHDILQLLAGQGKSPSGPPFARYFGMSAGTFEVEFGFPVEGGVEGSGRVVTGLTPSGKAASSLYIGPYGEIEAVYDALMKWVDDNGFDLSGEAYEIYLDNPLEHHHHHH”, for which the “soluble on expression in E. coli” value is reported as “not soluble”. For “MDFETNEDINGVRFTWNVFPSTRSDANSNVVPVGCLYTPLKEYDELNVAPYNPVVCSGPHCKSILNPYCVIDPRNSSWSCPICNSRNHLPPQYTNLSQENMPLELQSTTIEYITNKPVTVPPIFFFVVDLTSETENLDSLKESIITSLSLLPPNALIGLITYGNVVQLHDLSSETIDRCNVFRGDREYQLEALTEMLTGQKPTGPGGAASHLPNAMNKVTPFSLNRFFLPLEQVEFKLNQLLENLSPDQWSVPAGHRPLRATGSALNIASLLLQGCYKNIPARIILFASGPGTVAPGLIVNSELKDPLRSHHDIDSDHAQHYKKACKFYNQIAQRVAANGHTVDIFAGCYDQIGMSEMKQLTDSTGGVLLLTDAFSTAIFKQSYLRLFAKDEEGYLKMAFNGNMAVKTSKDLKVQGLIGHASAVKKTDANNISESEIGIGATSTWKMASLSPYHSYAIFFEIANTAANSNPMMSAPGSADRPHLAYTQFITTYQHSSGTNRIRVTTVANQLLPFGTPAIAASFDQEAAAVLMARIAVHKAETDDGADVIRWLDRTLIKLCQKYADYNKDDPQSFRLAPNFSLYPQFTYYLRRSQFLSVFNNSPDETAFYRHIFTREDTTNSLIMIQPTLTSFSMEDDPQPVLLDSISVKPNTILLLDTFFFILIYHGEQIAQWRKAGYQDDPQYADFKALLEEPKLEAAELLVDRFPLPRFIDTEAGGSQARFLLSKLNPSDNYQDMARGGSTIVLTDDVSLQNFMTHLQQVAVSGQA”, the “soluble on expression in E. coli” value is recorded as “soluble”. In the case of “MDFLDFEKVFSFYSKATKKGFSPFFVPALEKAEEPAGNFFLDRKGNLFSIREDFTKTVLNHRKRYSPDSQIKVWYADFVYRYSGSDLVAEYQLGLEKVPRNSLDDSLEVLEIIVESASEFFEGPVIVEIGHTGVYEDLLKEIPKDLHEKVLNLIDTKNLAEIEFLSHMKKIDLSRVEKIIEDSIYRRSPEHLKTMDLPLSVREDLLSASSFLQEKFPTVSVEIDLTLARTIEEYCGLIFTIYDTSSSRLVAAGGEYTVNGEKGVGGSIFLEGKTC” it was “soluble”; in that of “MDGFGSHPRTLAVDQWMDIVNGKGYGVGGTTQVYSTRPDSPKFQPSIPPPPGSTSKTRTTATPWRLIDAETKRKKRIATYKTYALEGKVKSTVKKGFHWIKDRYSHIIHG”, “soluble”. In the case of “MDGNDINIQKNEFSRDQSALLMMDQHSDHKNHESAIGEPGMSYTASQPALSSTEHQTPLVSEASVAAPQNHLNGNSHESVSEMDRNSVDFAIESVLMKARAYNKMGAPKDPRRKQHNPKSEPKIEPHVTDSSDNQAAMSNKMEAEAPKMESNQNYVSNGSEPPFRFVSISNFDEMKTKKKEVQEELKLEVDSDSEEDDVPEQKTPKESDRCGGCGKFTHEDDLIALEEEKKKEKEKPLMSKKKSHHHKKNDFQWIGCDSCQTWYHFLCSGLEQFEYYLYEKFFCPKCVPHTGHSIRYKVVAPHRYRWYSPNEKHLGIEVGSKTWIEDFITRENTVPSPTDDEVCIVEDGYEFRREFEKLGGADNWGKVFMVKDMDGLNMTMPKPGFDLEDVVKIMGSDYEVDTIDVYNQSTYSMKLDTFRKLFRDTKNRPLLYNFLSLEFSDNNEMKEIAKPPRFVQEISMVNRLWPDVSGAEYIKLLQREEYLPEDQRPKVEQFCLAGMAGSYTDFHVDFGGSSVYYHILKGEKIFYIAAPTEQNFAAYQAHETSPDTTTWFGDIANGAVKRVVIKEGQTLLIPAGWIHAVLTPVDSLVFGGNFLHLGNLEMQMRVYHLENAIRKEIRSEEKFYFPNFELLHWMYMRNVLLEKITEANQEGSDMREQEKNIWTASQIMKAEMERWMDRELRLGPEKNAILPTDDKNKIMISVRKQIEIQTKIQNAKNKPMGLKQKRKSRESAERDDEDYCPSSSTAYKKKYTKKAKKDNDDAPKVKKAKKEEVPEEKVPVPEAAGPSEVTAPLTIKIGMGPTEDQKGVVQIFNNQCTSSGRKVKLNQNVADYCGSHLEARVEEIPEKATKSFRELDNELERCEAVHSGEKIKKVKEPKPPKQPKEKKEKPPPKKKEMSSRDRLMKKLKM” it was “not soluble”; in that of “MDGVHDLAGVQGFGKVPHTVNADIGPTFHAEWEHLPYSLMFAGVAELGAFSVDEVRYVVERMEPRHYMMTPFYERYVIGVATLMVEKGILTQDELESLAGGPFPLSRPSESEGRPAPVETTTFEVGQRVRVRDEYVPGHIRMPAYCRGRVGTISHRTTEKWPFPDAIGHGRNDAGEEPTYHVKFAAEELFGSDTDGGSVVVDLFEGYLEPAA”, “soluble”; in that of “MDHLPIFCQLRDRDCLIVGGGDVAERKARLLLEAGARLTVNALTFIPQFTVWANEGMLTLVEGPFDETLLDSCWLAIAATDDDTVNQRVSDAAESRRIFCNVVDAPKAASFIMPSIIDRSPLMVAVSSGGTSPVLARLLREKLESLLPQHLGQVARYAGQLRARVKKQFATMGERRRFWEKFFVNDRLAQSLANADEKAVNATTERLFSEPLDHRGEVVLVGAGPGDAGLLTLKGLQQIQQADIVVYDRLVSDDIMNLVRRDADRVFVGKRAGYHCVPQEEINQILLREAQKGKRVVRLKGGDPFIFGRGGEELETLCHAGIPFSVVPGITAASGCSAYSGIPLTHRDYAQSVRLVTGHLKTGGELDWENLAAEKQTLVFYMGLNQAATIQEKLIAFGMQADMPVALVENGTSVKQRVVHGVLTQLGELAQQVESPALIIVGRVVALRDKLNWFSNH”, “soluble”.

For “MDHRSSSPFLQILPPDEVEKLLHSMKQAKEELETLGNGDESLFLCPQKITHCSTVSWKPNNVLAPALPKQNALNFNGNEQLSHENEAHSEIPSLLTFQEKGEEDTVEVTRDNYNEIDTVEDFRSIEPALENSPKILVDDSMEATQTFIEETNDFQNDTVHSLDGTLEIENRRLCLLGMLVEMKEICKSVKVDLLLNLIPDLAPVAVQACNSASSLSRKEAIYCLVYMVKQVGAEEMEKYLEPLTTAKRTLLQIYIDRSSKDDSK”, the “soluble on expression in E. coli” value is listed as “not soluble”. For “MDIAEQLIQNAGKRSTPVRSAVLGVLLNAEDVLSHSEVLEHLQQLGAFDRVTVYRALDWLVTQGLVHKVAGAGRAWRFQVTRSESMHRHAHFQCHHCHKVFCLPEVQPVLPKELPSNFSIDSIELNIKGICADCGRAMMSQ”, the “soluble on expression in E. coli” value is “not soluble”. For “MDIKIIKDKKNPLLNRRELDFIVKYEGSTPSRNDVRNKLAAMLNAPLELLVIQRIKTEYGMQESKGYAKLYEDADRMKQVEQEYVLKRNAVPGSETEGEEALEHHHHHH”, the “soluble on expression in E. coli” value is recorded as “soluble”.
